Data reported in US20090317364A1, “NOVEL COMPOSITIONS FOR PREVENTION AND TREATMENT OF MASTITIS AND METRITIS” (priority 2006, published 2009).

Experiments:
Staphylococcus. aureus [1] = assay: Lab trials 2a (in vitro) for synergy, components added in wells for diffusion; assay type: cell-based
From the text: a) Lab trials 2a (in vitro) for synergy.

Staphylococcus. aureus [2] = assay: Lab trials 2b (in vitro) for synergy, components added on top of the culture; assay type: cell-based
From the text: b) Lab trials 2b (in vitro) for synergy.

B1: Serratiopeptidase (protein, UniProt P07268 17-487, looked up)
Serralysin: AATTGYDAVDDLLHYHERGNGIQINGKDSFSNEQAGLFITRENQTWNGYKVFGQPVKLTFSFPDYKFSSTNVAGDTGLSKFSAEQQQQAKLSLQSWADVANITFTEVAAGQKANITFGNYSQDRPGHYDYGTQAYAFLPNTIWQGQDLGGQTWYNVNQSNVKHPATEDYGRQTFTHEIGHALGLSHPGDYNAGEGNPTYRDVTYAEDTRQFSLMSYWSETNTGGDNGGHYAAAPLLDDIAAIQHLYGANLSTRTGDTVYGFNSNTGRDFLSTTSNSQKVIFAAWDAGGNDTFDFSGYTANQRINLNEKSFSDVGGLKGNVSIAAGVTIENAIGGSGNDVIVGNAANNVLKGGAGNDVLFGGGGADELWGGAGKDIFVFSAASDSAPGASDWIRDFQKGIDKIDLSFFNKEAQSSDFIHFVDHFSGAAGEALLSYNASNNVTDLSVNIGGHQAPDFLVKIVGQVDVATDFIV
notes: proteolytic enzyme isolated from the non-pathogenic Enterobacteria Serratia E15, CAS 37312-62-2
Staphylococcus. aureus [1]
  Inhibition zone diameter In cm for Staphylococcus. aureus: 0.5 cm
Staphylococcus. aureus [2]
  Inhibition zone In diameter cm for Staphylococcus. aureus: 0.61 cm
